# Results taken from patent US20260078171A1.
# Legend:
# [1] = biological target: SARS-CoV-2 Beta RBD (SARS-CoV-2); assay: bio-layer interferometry (BLI, Octet), monovalent Fab affinity
# [2] = biological target: SARS-CoV-2 Omicron BA.4.1 spike protein (authentic virus) (SARS-CoV-2); assay: cell-based or functional assay
# [3] = biological target: SARS-CoV-2 Delta spike protein (authentic virus / MLV pseudovirus) (SARS-CoV-2); assay: cell-based or functional assay
# [4] = biological target: SARS-CoV-2 Omicron BA.1 spike protein (authentic virus / MLV pseudovirus) (SARS-CoV-2); assay: cell-based or functional assay
# [5] = biological target: SARS-CoV-2 Omicron BA.2 spike protein (authentic virus / MLV pseudovirus) (SARS-CoV-2); assay: cell-based or functional assay
# [6] = biological target: SARS-CoV-2 Omicron BA.5 spike glycoprotein (lentivirus-based pseudovirus) (SARS-CoV-2); assay: cell-based or functional assay
# [7] = biological target: SARS-CoV-2 Omicron BN.1 spike protein, Monogram pseudovirus (SARS-CoV-2) (UniProt P0DTC2); assay: cell-based or functional assay
# [8] = biological target: SARS-CoV-2 B.1.617.2 (Delta) spike protein, Monogram pseudovirus (SARS-CoV-2) (UniProt P0DTC2); assay: cell-based or functional assay
# [9] = biological target: SARS-CoV-2 Omicron BA.2.75 spike glycoprotein (lentivirus-based pseudovirus) (SARS-CoV-2); assay: cell-based or functional assay
# [10] = biological target: SARS-CoV-2 Omicron BA.2.75 spike protein, Monogram pseudovirus (SARS-CoV-2) (UniProt P0DTC2); assay: cell-based or functional assay
# [11] = biological target: SARS-CoV-2 Omicron XBB.1.5 spike protein, Monogram pseudovirus (SARS-CoV-2) (UniProt P0DTC2); assay: cell-based or functional assay
# [12] = biological target: SARS-CoV-2 Omicron XBB.1 spike protein, Monogram pseudovirus (SARS-CoV-2) (UniProt P0DTC2); assay: cell-based or functional assay
# [13] = biological target: SARS-CoV-2 Beta spike protein (MLV pseudovirus) (SARS-CoV-2); assay: cell-based or functional assay
# [14] = biological target: SARS-CoV-2 Omicron XBB spike protein, Monogram pseudovirus (SARS-CoV-2) (UniProt P0DTC2); assay: cell-based or functional assay
# Chain of ADI-58125 (antibody) (VH): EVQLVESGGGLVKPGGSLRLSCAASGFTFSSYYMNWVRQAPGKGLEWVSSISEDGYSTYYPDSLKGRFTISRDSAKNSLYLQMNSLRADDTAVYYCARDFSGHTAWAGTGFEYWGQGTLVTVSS
# Chain of ADI-58125 (antibody) (VL): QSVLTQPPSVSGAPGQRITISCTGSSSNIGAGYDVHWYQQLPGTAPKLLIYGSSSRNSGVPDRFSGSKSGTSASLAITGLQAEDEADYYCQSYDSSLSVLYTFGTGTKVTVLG
# Chain of VYD224 (antibody) (VH): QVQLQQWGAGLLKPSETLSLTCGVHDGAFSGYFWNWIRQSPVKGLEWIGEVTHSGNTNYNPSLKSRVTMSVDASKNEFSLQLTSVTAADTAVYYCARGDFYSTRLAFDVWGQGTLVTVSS
# Chain of VYD224 (antibody) (VL): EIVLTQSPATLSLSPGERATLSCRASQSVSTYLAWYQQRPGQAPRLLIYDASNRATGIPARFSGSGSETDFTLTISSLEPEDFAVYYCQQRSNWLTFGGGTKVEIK
# Chain of VYD222 (antibody) (VH): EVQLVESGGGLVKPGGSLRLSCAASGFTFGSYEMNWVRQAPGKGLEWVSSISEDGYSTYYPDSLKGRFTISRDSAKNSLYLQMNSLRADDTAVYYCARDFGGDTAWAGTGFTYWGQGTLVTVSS
# Chain of VYD222 (antibody) (VL): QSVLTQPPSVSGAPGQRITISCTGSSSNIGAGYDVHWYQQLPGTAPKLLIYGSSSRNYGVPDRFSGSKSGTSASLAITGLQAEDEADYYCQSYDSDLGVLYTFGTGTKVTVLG
# Chain of VYD223 (antibody) (VH): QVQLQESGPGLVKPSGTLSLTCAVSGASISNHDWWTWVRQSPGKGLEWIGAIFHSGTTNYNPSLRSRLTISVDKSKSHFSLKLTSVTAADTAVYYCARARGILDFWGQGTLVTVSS
# Chain of VYD223 (antibody) (VL): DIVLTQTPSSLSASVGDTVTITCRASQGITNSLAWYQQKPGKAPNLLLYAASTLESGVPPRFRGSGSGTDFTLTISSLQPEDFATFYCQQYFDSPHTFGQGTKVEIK
substance,measurement,setting,value
ADI-58125 (Fab),Kd,[1],6.4 nM
ADI-58125 (antibody),"IC50, authentic virus neutralization",[2],> 5000 ng/mL
same,"IC90, authentic virus neutralization",[2],> 5000 ng/mL
same,"IC50, authentic virus neutralization",[3],49 ng/mL
same,"IC90, authentic virus neutralization",[3],156 ng/mL
same,"IC50, authentic virus neutralization",[4],> 5000 ng/mL
same,"IC90, authentic virus neutralization",[4],> 5000 ng/mL
same,"IC50, authentic virus neutralization",[5],> 5000 ng/mL
same,"IC90, authentic virus neutralization",[5],> 5000 ng/mL
CoV2-2130 (antibody),"IC50, authentic virus neutralization",[2],88 ng/mL
same,"IC90, authentic virus neutralization",[2],587 ng/mL
same,"IC50, authentic virus neutralization",[3],61 ng/mL
same,"IC90, authentic virus neutralization",[3],136 ng/mL
same,"IC50, authentic virus neutralization",[4],> 5000 ng/mL
same,"IC90, authentic virus neutralization",[4],> 5000 ng/mL
same,"IC50, authentic virus neutralization",[5],11 ng/mL
same,"IC90, authentic virus neutralization",[5],37 ng/mL
LY-CoV1404 (antibody),"IC50, authentic virus neutralization",[2],26 ng/mL
same,"IC90, authentic virus neutralization",[2],100 ng/mL
same,"IC50, authentic virus neutralization",[3],27 ng/mL
same,"IC90, authentic virus neutralization",[3],96 ng/mL
same,"IC50, authentic virus neutralization",[4],4 ng/mL
same,"IC90, authentic virus neutralization",[4],152 ng/mL
same,"IC50, authentic virus neutralization",[5],10 ng/mL
same,"IC90, authentic virus neutralization",[5],69 ng/mL
VYD222 (antibody),"IC50, lentivirus-based pseudovirus neutralization",[6],30 ng/mL
same,"IC50, PhenoSense pseudovirus neutralization",[7],2110 ng/mL
same,"IC50, authentic virus neutralization",[2],41 ng/mL
same,"IC90, authentic virus neutralization",[2],524 ng/mL
same,"IC50, PhenoSense pseudovirus neutralization",[8],4.2 ng/mL
same,"IC50, MLV-based pseudovirus neutralization",[3],< 0.0001 ng/mL
same,"IC50, authentic virus neutralization",[3],16 ng/mL
same,"IC90, authentic virus neutralization",[3],103 ng/mL
same,"IC50, MLV-based pseudovirus neutralization",[4],< 0.0001 ng/mL
same,"IC50, authentic virus neutralization",[4],26 ng/mL
same,"IC90, authentic virus neutralization",[4],143 ng/mL
same,"IC50, lentivirus-based pseudovirus neutralization",[9],100 ng/mL
same,"IC50, PhenoSense pseudovirus neutralization",[10],1360 ng/mL
same,"IC50, PhenoSense pseudovirus neutralization",[11],81 ng/mL
same,"IC50, PhenoSense pseudovirus neutralization",[12],121 ng/mL
same,"IC50, MLV-based pseudovirus neutralization",[5],< 0.0001 ng/mL
same,"IC50, authentic virus neutralization",[5],8 ng/mL
same,"IC90, authentic virus neutralization",[5],231 ng/mL
same,"IC50, MLV-based pseudovirus neutralization",[13],< 0.0001 ng/mL
same,"IC50, PhenoSense pseudovirus neutralization",[14],152 ng/mL
VYD223 (antibody),"IC50, authentic virus neutralization",[2],63 ng/mL
same,"IC90, authentic virus neutralization",[2],437 ng/mL
same,"IC50, authentic virus neutralization",[3],13 ng/mL
same,"IC90, authentic virus neutralization",[3],60 ng/mL
same,"IC50, authentic virus neutralization",[4],15 ng/mL
same,"IC90, authentic virus neutralization",[4],68 ng/mL
same,"IC50, authentic virus neutralization",[5],16 ng/mL
same,"IC90, authentic virus neutralization",[5],84 ng/mL
VYD224 (antibody),"IC50, lentivirus-based pseudovirus neutralization",[6],80 ng/mL
same,"IC50, PhenoSense pseudovirus neutralization",[7],1.5 ng/mL
same,"IC50, authentic virus neutralization",[2],126 ng/mL
same,"IC90, authentic virus neutralization",[2],359 ng/mL
same,"IC50, PhenoSense pseudovirus neutralization",[8],1 ng/mL
same,"IC50, authentic virus neutralization",[3],6 ng/mL
same,"IC90, authentic virus neutralization",[3],14 ng/mL
same,"IC50, authentic virus neutralization",[4],10 ng/mL
same,"IC90, authentic virus neutralization",[4],23 ng/mL
same,"IC50, lentivirus-based pseudovirus neutralization",[9],10 ng/mL
same,"IC50, PhenoSense pseudovirus neutralization",[10],4 ng/mL
same,"IC50, PhenoSense pseudovirus neutralization",[11],> 5000 ng/mL
same,"IC50, PhenoSense pseudovirus neutralization",[12],> 5000 ng/mL
same,"IC50, authentic virus neutralization",[5],16 ng/mL
same,"IC90, authentic virus neutralization",[5],54 ng/mL
same,"IC50, PhenoSense pseudovirus neutralization",[14],> 5000 ng/mL
